Experiment [1] addresses T1, human PD1 human Fc tagged recombinant protein (human, UniProt Q15116 25-170, limits assumed).
T1 construct: also called huPD1-Fc; huPD-1-Fc; not shown: human Fc tag
The experiment can be described thus: direct ELISA, Fab on coated PD1-Fc. On the procedure: (§1) Binding and cross-reactivity of the lead panel to the recombinant proteins was initially assessed by binding ELISA. The human PD1 human Fc tagged recombinant protein and the cynomolgus monkey PD1 human Fc tagged recombinant protein were coated to the surface of MaxiSorp™ flat-bottom 96 well plate at 1 μg/ml. […] The Fabs were detected using mouse anti-c-myc antibody followed by donkey anti-mouse IgG conjugated to horseradish peroxidase. The IgGs were detected using the mouse anti-human IgG conjugated to horseradish peroxidase. Binding signals were visualized with 3,3′,5,5′-Tetrannethylbenzidine Substrate Solution (TMB) and the absorbance measured at 450 nm.
(§2) The top 12 clones were also expressed as Fab protein from E. coli expression, purified to homogeneity, quantified, and applied in direct ELISA binding analyses on human PD1-Fc and cyno PD1-Fc (FIGS. 2A&B, Table 5).
For orientation: An ELISA detects its analyte on a solid surface through an enzyme-linked reagent.

Experiment [2] addresses T2, cynomolgus monkey PD1 human Fc tagged recombinant protein (cynomolgus monkey, UniProt Q15116 25-170 (human entry), limits assumed).
T2 construct: also called cyPD1-Fc; cyPD-1-Fc; not shown: human Fc tag
T2 chain: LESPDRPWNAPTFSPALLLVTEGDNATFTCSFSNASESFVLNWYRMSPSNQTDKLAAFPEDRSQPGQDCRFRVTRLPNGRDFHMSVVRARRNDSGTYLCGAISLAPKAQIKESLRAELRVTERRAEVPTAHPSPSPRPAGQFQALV
In words: direct ELISA, Fab on coated PD1-Fc. On the procedure: as §1, §2

The target of experiment [3] is T3, human PD1 expressed on cells (human, UniProt Q15116 25-288). In words: cell-based or functional assay.
The target of experiment [4] is T3, human PD1 expressed on cells. The experiment can be described thus: flow cytometry, PD1 CHO-K1 cells. As for the experimental part: (§3) Purified IgGs were tested in FACs for binding to human and cyno PD1 expressed on CHO-K1 stable cell lines and CHO-K1 wild-type cells. […] Binding of IgGs was detected with a mouse anti-human IgG conjugated to FITC. Results were analyzed by examining the Mean Fluorescence Intensity (MFI) of 10000 cells per sample in the BL-1 channel detector of a flow cytometer (Attune™ NxT Acoustic Focusing Cytometer, Invitrogen/ThermoFisher Scientific).
(§4) Antibodies to PD1 were analysed for concentration-dependent binding at the cell surface via flow cytometry. Initial analyses were performed on CHO cells stably-transfected with human or cyno PD1.
In general terms: A flow cytometer gives signals particle by particle.

Experiment [5] concerns the target T4, cyno PD1 expressed on CHO-K1 cells (cynomolgus monkey, UniProt Q15116 25-288 (human entry)).
T4 construct: also called cyno PD1+ CHO cells
T4 chain: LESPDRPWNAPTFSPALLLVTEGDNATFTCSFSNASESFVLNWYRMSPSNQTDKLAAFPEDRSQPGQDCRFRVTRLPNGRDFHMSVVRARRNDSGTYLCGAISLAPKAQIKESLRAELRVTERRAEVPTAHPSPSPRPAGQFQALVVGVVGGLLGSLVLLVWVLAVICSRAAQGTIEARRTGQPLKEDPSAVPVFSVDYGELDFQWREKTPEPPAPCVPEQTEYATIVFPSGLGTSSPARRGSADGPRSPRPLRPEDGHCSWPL
In words: flow cytometry, PD1 CHO-K1 cells. On the procedure:
as §3, §4

Experiment [6] concerns the target T1, human PD1 human Fc tagged recombinant …. The experiment can be described thus: direct ELISA, IgG1null on coated PD1-Fc. As for the experimental part: as §1
(§5) The purified IgGs described above were then tested for binding to human and cyno PD1-Fc in direct titration ELISA format. […] As the ELISA EC50 values for directly binding IgGs are strongly influenced by avidity, rather than true 1:1 binding affinity, we then proceeded to perform higher-sensitivity, solution-phase epitope competition and Biacore binding affinity determinations, as outlined below.

Experiment [7] deals with T2, cynomolgus monkey PD1 human Fc tagged …. In words: direct ELISA, IgG1null on coated PD1-Fc. On the procedure: as §1, §5
Experiment [8] has as its target T5, human FZD5 (frizzled class receptor 5) on transfected HEK293 cells (human, UniProt Q13467 27-585).
T5 construct: also called FZDS; FZ5
The experiment can be described thus: cell microarray re-array, transfected HEK293. As for the experimental part: (§6) Antibody binding was detected using AF647 fluorescent secondary anti-human IgG1 antibody. Primary hits (duplicate spots) were identified by analysing fluorescence (AF647 and ZsGreen1) on ImageQuant. Vectors encoding all hits were sequenced to confirm their correct identities. […] Slides were analysed as above. Flow cytometry confirmation screen: Expression vectors encoding ZsGreen1 only, or ZsGreen1 and PD1, FZDS, KDR or ULBP2, were transfected into human HEK293 cells. Each live transfectant was incubated with […] of each of the test antibodies and the Isotype control antibody. Cells were washed, and incubated with the same AF647 anti-human IgG Fc detection antibody as used in the cell microarray screens. Cells were again washed, and analysed by flow cytometry using an Accuri flow cytometer (BD). A 7AAD live/dead dye was used to exclude dead cells, and ZsGreen1-positive cells (i.e. transfected cells) were selected for analyses.

Experiment [9] deals with T6, human KDR (VEGFR2) on cells (human, UniProt P35968 20-1356).
T6 construct: Transfected HEK293 cells (arrays, flow cytometry) and human VEGFR2 reporter cells
In words: cell microarray re-array, transfected HEK293. As for the experimental part:
as §6

The target in experiment [10] is T7, human ULBP2 (UL16 binding protein 2) on transfected HEK293 cells (human, UniProt Q9BZM5 26-217).
T7 sequence: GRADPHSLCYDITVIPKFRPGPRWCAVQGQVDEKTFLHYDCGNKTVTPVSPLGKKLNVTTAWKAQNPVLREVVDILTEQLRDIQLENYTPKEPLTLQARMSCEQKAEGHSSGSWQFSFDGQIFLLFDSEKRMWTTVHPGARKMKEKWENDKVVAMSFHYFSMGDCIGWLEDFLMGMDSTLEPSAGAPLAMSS
The experiment can be described thus: cell microarray re-array, transfected HEK293. As for the experimental part: as §6

In experiment [11] the target is T8, biotinylated human PD1-His/AviTag (human, UniProt Q15116 25-170, limits assumed, biotinylated).
T8 construct: Alphascreen antigen; whole entry named; also called biotinylated monomeric human PD1; not shown: His/AviTag
The experiment can be described thus: Alphascreen competition vs IgG1-Mab005 (humanized). As for the experimental part:
The AlphaScreen assay (Perkin Elmer) was performed in a 25 μl final volume in 384-well white microtiter plates (Greiner). The reaction buffer contained 1×PBS pH 7.3 (Oxoid, Cat. nr. BRO014G) and 0.05% (v/v) Tween® 20 (Sigma, Cat. nr. P9416). Purified IgG samples were titrated in three fold serial dilutions starting at 500 nM final concentration and incubated with biotinylated human PD1-His/AviTag at 0.6 nM final concentration for 20 minutes at room temperature. […] Followed by addition of the Streptavidin Donor beads at 20 μg/ml (final concentration) and incubation for 30 minutes at room temperature. The emission of light was measured in the EnVision multilabel plate reader (Perkin Elmer) and analysed using the EnVision manager software. Values were reported as Counts Per Second (CPS) and corrected for crosstalk.

Experiment [12] addresses T9, human PD1 His tagged (monomeric) (human, UniProt Q15116 25-170, limits assumed).
T9 construct: Soluble monomeric analyte; whole entry named; also called monomeric human PD1; not shown: His tag
The experiment can be described thus: SPR (Biacore), IgG captured, monomeric PD1-His analyte. On the procedure: (§7) Affinity (KD) of purified IgGs was determined via SPR with antigen in-solution on a Biacore 3000 (GE). A mouse anti-human antibody (CH1 specific) was immobilized on a CM5 Sensor Chip to a level of 2000 RU in acetate buffer at pH 4.5 using amine coupling following the Wizard instructions for two channels. One channel was used for background signal correction. The standard running buffer HBS-EP pH 7.4 was used. Regeneration was performed with a single injection of 10 μl of 10 mM Glycine at pH 1.5 at 20 μl/minute. IgG samples were injected for 2 minutes at 50 nM at 30 μl/min followed by and off-rate of 60 seconds. […] The obtained sensorgrams were analysed using the Biacore 3000 evaluation (BIAevaluation) software. The KD was calculated by simultaneous fitting of the association and dissociation phases to a 1:1 Langmuir binding model.
(§8) Biacore analyses of binding affinity was performed for all IgGs to solution-phase, monomeric human and cyno PD1 proteins.
For orientation: In SPR one partner is held on a chip, and binding of the other changes the refractive index at the surface.

In experiment [13] the target is T10, cynomolgus monkey PD1 His tag (monomeric) (cynomolgus monkey, UniProt Q15116 25-170 (human entry), limits assumed).
T10 construct: Soluble monomeric analyte; whole entry named; also called monomeric cyno PD1; not shown: His tag
T10 chain: T2 chain
Described as above. As for the experimental part:
as §7, §8

For experiment [14], the target named is T1, human PD1 human Fc tagged recombinant …. In words: direct ELISA, IgG1null on coated PD1-Fc. On the procedure: as §1, §5
This is another data set of the same source.

In experiment [15] the target is T2, cynomolgus monkey PD1 human Fc tagged …. The experiment can be described thus: direct ELISA, IgG1null on coated PD1-Fc. On the procedure: as §1, §5

What is called EC50 is the concentration giving half of the maximal effect. As usually defined, the IC50 is the concentration that inhibits the measured activity by half. Broadly, the Kd is the free concentration of one partner at which half of the binding sites on the other are occupied at equilibrium, for simple one-to-one binding. Broadly, the koff is the first-order rate constant of dissociation. The term kon denotes a measure of how fast the partners come together.

Substitutions are numbered along the chain they refer to.

T1 sequence (Q15116 25-170 limits assumed): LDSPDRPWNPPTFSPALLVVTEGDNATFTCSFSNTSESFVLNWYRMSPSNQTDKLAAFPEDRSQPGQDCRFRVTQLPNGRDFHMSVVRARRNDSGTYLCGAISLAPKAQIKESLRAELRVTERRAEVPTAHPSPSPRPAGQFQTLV
T9 sequence (Q15116 25-170 limits assumed): as above
T8 sequence (Q15116 25-170 limits assumed): as above
T3 sequence (Q15116 25-288 limits assumed): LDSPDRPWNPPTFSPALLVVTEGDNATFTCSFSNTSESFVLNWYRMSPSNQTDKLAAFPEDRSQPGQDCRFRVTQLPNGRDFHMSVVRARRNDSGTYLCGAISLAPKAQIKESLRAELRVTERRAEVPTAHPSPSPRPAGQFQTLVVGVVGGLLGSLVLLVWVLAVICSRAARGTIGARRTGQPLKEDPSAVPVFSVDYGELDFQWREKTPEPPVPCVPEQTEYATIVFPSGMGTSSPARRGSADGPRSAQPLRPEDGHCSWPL
T6 sequence (P35968 20-1356 limits assumed): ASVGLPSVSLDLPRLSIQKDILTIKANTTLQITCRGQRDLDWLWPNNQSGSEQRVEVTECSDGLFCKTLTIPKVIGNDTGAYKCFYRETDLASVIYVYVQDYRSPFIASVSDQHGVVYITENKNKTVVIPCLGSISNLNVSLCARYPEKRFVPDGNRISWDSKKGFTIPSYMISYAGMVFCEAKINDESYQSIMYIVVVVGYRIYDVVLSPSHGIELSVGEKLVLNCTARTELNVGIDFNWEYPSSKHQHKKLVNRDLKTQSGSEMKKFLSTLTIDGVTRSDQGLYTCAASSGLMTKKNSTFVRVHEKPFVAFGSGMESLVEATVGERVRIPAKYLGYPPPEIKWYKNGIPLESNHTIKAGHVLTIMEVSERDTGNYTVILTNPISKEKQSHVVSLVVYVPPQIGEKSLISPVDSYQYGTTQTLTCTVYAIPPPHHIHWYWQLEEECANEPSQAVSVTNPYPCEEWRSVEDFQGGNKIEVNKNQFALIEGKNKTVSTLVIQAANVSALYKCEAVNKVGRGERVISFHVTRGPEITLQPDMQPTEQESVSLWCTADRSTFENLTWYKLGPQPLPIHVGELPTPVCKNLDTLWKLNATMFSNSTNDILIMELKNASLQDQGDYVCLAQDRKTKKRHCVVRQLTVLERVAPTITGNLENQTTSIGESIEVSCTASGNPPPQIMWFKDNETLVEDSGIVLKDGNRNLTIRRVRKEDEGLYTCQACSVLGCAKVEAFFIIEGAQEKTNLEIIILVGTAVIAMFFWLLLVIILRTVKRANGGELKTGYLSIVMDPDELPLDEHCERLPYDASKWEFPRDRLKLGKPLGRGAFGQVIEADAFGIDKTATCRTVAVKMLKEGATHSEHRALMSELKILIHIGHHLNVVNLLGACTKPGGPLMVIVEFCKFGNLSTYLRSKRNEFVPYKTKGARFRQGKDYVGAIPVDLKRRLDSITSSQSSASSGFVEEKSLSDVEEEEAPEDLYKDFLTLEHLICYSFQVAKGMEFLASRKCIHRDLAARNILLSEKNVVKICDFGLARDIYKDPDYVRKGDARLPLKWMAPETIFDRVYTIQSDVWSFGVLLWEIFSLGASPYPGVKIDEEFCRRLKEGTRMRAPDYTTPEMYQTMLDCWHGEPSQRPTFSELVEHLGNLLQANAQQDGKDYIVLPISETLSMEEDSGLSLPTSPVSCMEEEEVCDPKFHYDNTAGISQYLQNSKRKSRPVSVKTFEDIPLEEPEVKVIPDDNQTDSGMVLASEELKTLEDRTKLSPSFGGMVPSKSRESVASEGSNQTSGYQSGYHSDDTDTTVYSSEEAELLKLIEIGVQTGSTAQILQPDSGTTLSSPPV
T5 sequence (Q13467 27-585 limits assumed): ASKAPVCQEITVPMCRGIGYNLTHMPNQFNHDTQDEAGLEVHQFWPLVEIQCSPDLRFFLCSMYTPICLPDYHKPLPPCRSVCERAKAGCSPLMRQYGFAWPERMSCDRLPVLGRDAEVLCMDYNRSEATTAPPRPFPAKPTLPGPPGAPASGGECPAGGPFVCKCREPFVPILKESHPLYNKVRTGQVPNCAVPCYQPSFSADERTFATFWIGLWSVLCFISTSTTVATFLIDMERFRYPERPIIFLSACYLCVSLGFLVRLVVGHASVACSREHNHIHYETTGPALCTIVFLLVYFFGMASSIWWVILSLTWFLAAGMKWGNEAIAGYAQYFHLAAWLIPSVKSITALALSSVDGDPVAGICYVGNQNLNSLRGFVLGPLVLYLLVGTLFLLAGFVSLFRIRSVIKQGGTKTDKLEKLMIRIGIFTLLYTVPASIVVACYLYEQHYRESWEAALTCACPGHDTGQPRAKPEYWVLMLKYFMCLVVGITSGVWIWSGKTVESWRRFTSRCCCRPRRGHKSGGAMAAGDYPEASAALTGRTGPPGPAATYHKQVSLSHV

B1: Fab06D02 (Fab, V domains shown)
VH: EVQLVESGGGLVQPGGSLRLSCAASGFTFSSYLMSWVRQAPGKGLEWVATISGGGSETYYVDSVKGRFTISRDNAKNSLYLQMNSLRAEDTAVYYCARQLYGFDYWGQGTLVTVSS
VL: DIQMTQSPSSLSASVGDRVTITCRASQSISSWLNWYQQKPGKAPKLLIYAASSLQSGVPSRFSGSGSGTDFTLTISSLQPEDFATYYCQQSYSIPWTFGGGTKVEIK
notes: Human Fab from E. coli, His/c-myc tags
Turning to B1, the results for the EC50 in experiment [1] and in [2] were 0.743 nM and 1.01 nM, respectively.

B2: Fab-Mab005 (Fab, V domains shown)
VH: B1 VH with L33M, S56A, E57N, V61P, G102Y, L111T
VL: DIQMTQSPSSLSASVGDRVTITCLASQTIGTWLTWYQQKPGKAPKLLIYTATSLADGVPSRFSGSGSGTDFTLTISSLQPEDFATYYCQQVYSIPWTFGGGTKVEIK
notes: Purified monomeric human Fab from E. coli, His tag, detected by c-myc; also called Mab005 (humanized) Fab
On to B2, for which the EC50 in experiment [1] was found to be 1.25 nM.

B3: IgG1-14 (antibody, V domains shown)
VH: B1 VH with T58K, G102A
VL: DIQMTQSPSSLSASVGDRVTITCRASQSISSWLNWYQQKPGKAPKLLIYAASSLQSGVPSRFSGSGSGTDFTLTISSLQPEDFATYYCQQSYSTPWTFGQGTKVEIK
notes: Designer; human IgG1null + Ckappa; also called Antibody IgG1-14
With B3, in [3], the “EC50 (ng/ml), IgG1null blockade of human PD1/PD-L1” value (from here on “EC50 (ng/ml), IgG1null blockade”) was determined as 212 ng/mL. In addition, the 50% effective concentration (EC50) was determined as 1.87 nM in [4], 1.33 nM in experiment [5], 0.125 nM in [6] and 0.0959 nM in experiment [7]. Moreover, the binding result in experiment [8], in [9] and in experiment [10] was “no binding (tested: 5 µg/ml)” each time. Also, the IC50 in experiment [11] stood at 3 nM. For the same molecule, the Kd in experiment [12] stood at 2.57 nM; in experiment [13] it was 6.9 nM. The koff in experiment [12] amounted to 0.00046 s⁻¹; in experiment [13], 0.00097 s⁻¹. Also, the kon in [12] amounted to 180000 M⁻¹ s⁻¹; in experiment [13], 140000 M⁻¹ s⁻¹.

B4: Fab12H04 (Fab, V domains shown)
VH: B1 VH with S56A, T58K
VL: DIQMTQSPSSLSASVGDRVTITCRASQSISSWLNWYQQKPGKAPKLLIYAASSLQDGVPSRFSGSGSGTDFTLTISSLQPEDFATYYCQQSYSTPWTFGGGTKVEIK
notes: as for B1
Regarding B4, the figures for the EC50 in experiment [1] and in [2] were 0.708 nM and 1.4 nM, respectively.

B5: IgG1-12H04 (antibody, V domains shown)
VH: B1 VH with S56A, T58K
VL: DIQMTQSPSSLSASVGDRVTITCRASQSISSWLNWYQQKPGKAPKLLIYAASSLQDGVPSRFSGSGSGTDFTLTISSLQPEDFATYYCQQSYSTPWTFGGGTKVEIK
notes: Library-derived; human IgG1null + Ckappa
For the molecule B5, the “EC50 (ng/ml), IgG1null blockade” value in [3] was determined as 188 ng/mL. In addition, the EC50 in experiment [4] was 1.95 nM; in [5], 2.17 nM; in experiment [14] it was 0.112 nM; in experiment [15], 0.12 nM. Also, in [11], the IC50 came to 4.01 nM. Also, the Kd in [12] was determined as 1.6 nM; in experiment [13], 4.7 nM. In addition, the off-rate constant (koff) in experiment [12] is 0.00032 s⁻¹; in [13], 0.00064 s⁻¹. The association rate constant (kon) in [12] is 200000 M⁻¹ s⁻¹; in [13], 140000 M⁻¹ s⁻¹.

B6: IgG1-11 (antibody, V domains shown)
VH: B1 VH with T58K, G102F
VL: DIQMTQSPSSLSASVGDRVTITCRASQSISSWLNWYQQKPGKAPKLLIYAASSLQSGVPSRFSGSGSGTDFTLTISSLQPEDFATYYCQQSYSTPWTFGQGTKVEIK
notes: Designer; human IgG1null + Ckappa; also called Antibody IgG1-11
B6: the “EC50 (ng/ml), IgG1null blockade” value in [3] was found to be 172 ng/mL. Also, the EC50 was 0.978 nM in [4], 0.861 nM in experiment [5], 0.0492 nM in experiment [6] and 0.0498 nM in [7]. Besides, the binding result in experiment [8], in [9] and in experiment [10] was “no binding (tested: 5 µg/ml)” in each case. In addition, the IC50 in [11] was 1.41 nM. Besides, the values for the dissociation constant Kd in experiment [12] and in [13] were 3.01 nM and 7.1 nM, respectively. Also, the off-rate constant (koff) was 0.0004 s⁻¹ in experiment [12] and 0.00073 s⁻¹ in [13]. Also, the on-rate constant (kon) was 130000 M⁻¹ s⁻¹ in experiment [12] and 100000 M⁻¹ s⁻¹ in experiment [13].

These data come from patent publication US20240124590A1 (ULTRAHUMAN EIGHT, published 2024).
